From the supplement of paper PMC9170038

System: MS2 coat protein
Experiment: apparent KD of MS2 coat protein; designed switch direction (-1 OFF switch, 1 ON switch): 1; higher = weaker reporter binding
Method in brief: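 Three titration conditions were used: no input, 200 uM small-molecule ligand, and an oligonucleotide input. In each, SNAP-549-labelled MS2 coat protein was raised from 0.7 or 1.5 nM, doubling, to 3 µM over designed RNA switches transcribed on Illumina chips by stalled E. coli RNA polymerase. Curve fits of normalised cluster fluorescence gave values whose per-design median over clusters is the apparent KD.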

[1] = input ligand: microRNA oligo, concentration not stated
[2] = Eterna round: R95, input ligand: microRNA oligo, concentration not stated
[3] = Eterna round: R95, input ligand: FMN 200 uM
[4] = Eterna round: R95, input ligand: none

Sequence | apparent KD of MS2 coat protein (input ligand: FMN 200 uM) | apparent KD of MS2 coat protein [1] | apparent KD of MS2 coat protein (input ligand: none) | apparent KD of MS2 coat protein [2] | apparent KD of MS2 coat protein [3] | apparent KD of MS2 coat protein [4]
AGAUCAUGACGAGGAUAUCCGACAUGAGGAUCACCCAUGUAUGUCGGAGGACGCGUACGUCCAAAGGAGAAGGCGUCGUGGUCA [JL SSNG2 1.02] (Eterna round: R96, puzzle: Same State NG 2) | 17.4 nM | 48.4 nM | 100 nM |  |  | 
GGAGCCGGCCUAGGAUAUUUCAUAAAACAACAUGAGGAUCACCCAUGUAGGCCAGAAGGCCUUGGGAAGAAGGAGGUCGGCUCC [Loop Effect - C28] (Eterna round: R96, puzzle: Same State NG 2) | 10.2 nM | 19.7 nM | 28.4 nM |  |  | 
GUAGCAUACCGAGGAUAUUCAUUACAUGAGGAUCACCCAUGUUUAAAUAAUAGGCGAAAGCCUUGGGAGAAGGCGGAAUGCUAC [Xeonanis - 20 Mod71] (Eterna round: R96, puzzle: Same State NG 2) | 10.9 nM | 10.1 nM | 14 nM |  |  | 
GGAGAACAUGAGGAUCACCCAUGUGAGCGGUAGCUAGGAUAUGCGGGAAGGAAGAGAGAAGCAGAAGGAGUCGGUA [JR_SS1_Sub033] (puzzle: Same State 1) |  |  |  | 34.2 nM |  | 
AACAUUCUAUCUGAGGAUAUCAUGAAAUAAACAUGAGGAUCACCCAUGUGCAGGAAAACUGCAUAUGAGAAGGCAGAUAGAUUGA [salish99_ss2_r3_022] (puzzle: Same State 2) |  |  |  | 1870 nM | 44.9 nM | 3320 nM
GGUGCGAAUAAAGCCUACAUGAGGAUCACCCAUGUAUGUAGGCAGGAUAUCGUUUGCUUUGCAAACGAGAAGGGCUGACGCACC [JL SSNG3 1.17] (Eterna round: R96, puzzle: Same State NG 3) | 27.4 nM | 37.7 nM | 63.6 nM |  |  | 
GUAGCAUACCGAGGAUAUUCAUUACAUGAGGAUCACCCAUGUUAGGCCAGCAUUAGCUGGCCUUGGGAGAAGGCGGAAUGCUAC [Xeonanis - 20 Mod53] (Eterna round: R96, puzzle: Same State NG 2) | 14 nM | 29.1 nM | 37.8 nM |  |  | 
AACAAUCUAUCUGAGGAUAUCAUGAAAAAAACAUGAGGAUCACCCAUGUGCAGGAAAACUGCAUAUGAGAAGGCAGAUAGAUUGU [salish99_SS2_r3_002] (puzzle: Same State 2) |  |  |  | 621 nM | 28.9 nM | 769 nM
AGGCGGAUAUCACAGGAUAUGUGCGCGUUCACAUGAGGAUCACCCAUGUAAAGGACGAGCCAAAAGCAGAAGGGUGACCACGCGA [Aedorlebe] (puzzle: Same State 2) |  |  |  | 14.8 nM | 15.3 nM | 25.4 nM
AAAAUACAUGAGGAUCACCCAUGUGAAAAUAUGGGAGGAUAUACCGAAAAAAAAAAAAAGGUAGAAGGCCCAAAAA [SS! 1 MT 5] (Eterna round: R96, puzzle: Same State 1) | 39.5 nM | 31 nM | 34.6 nM |  |  | 
UAGAUUCACGUAGGAUAUCGACCUACAUGAGGAUCACCCAUGUUUUUGAAUAGAUUUUUUUGUUACGAGAAGGACGUUAUGUAU [JR_SSNG2_Sub064] (Eterna round: R96, puzzle: Same State NG 2) | 133 nM | 177 nM | 268 nM |  |  | 
AUUAUUUUUGCAGGAUAUGAUUAACAUGAGGAUCACCCAUGUGGUGUUGUGAGUAAGGAGAGUGAUCAGAAGGGCAUUUUUUUU [JMF's solution 60] (Eterna round: R96, puzzle: Same State NG 2) | 449 nM | 410 nM | 315 nM |  |  | 
AAGAAGACGAACAAGGAUAUGUCAAAGGAAACAUGAGGAUCACCCAUGUAGAGAUUGGAAAAGAAACAGAAGGUGUACAGAGAGA [JR_SS2_Sub006] (puzzle: Same State 2) |  |  |  | 33.2 nM | 18.7 nM | 24.5 nM
